Laboratory results: US20240117018A1

Legend:
Test in all cases: cell-based or functional assay
[1] = molecular target: Env of HIV-1 pseudovirus 246F C1G (HIV-1)
[2] = molecular target: Env of HIV-1 pseudovirus 6240_08_TA5_4622 (HIV-1)
[3] = molecular target: Env of HIV-1 pseudovirus CAAN5342.A2 (HIV-1)
[4] = molecular target: Env of HIV-1 pseudovirus CNE20 (HIV-1)
[5] = molecular target: Env of HIV-1 pseudovirus Q259.d2.17 (HIV-1)
[6] = molecular target: Env of HIV-1 pseudovirus Q769.d22 (HIV-1)
[7] = molecular target: Env of HIV-1 pseudovirus Q842.d12 (HIV-1)
[8] = molecular target: Env of HIV-1 pseudovirus QH0692.42 (HIV-1)
[9] = molecular target: Env of HIV-1 pseudovirus RHPA4259.7 (HIV-1)
[10] = molecular target: Env of HIV-1 pseudovirus SC05_8C11_2344 (HIV-1)
[11] = molecular target: Env of HIV-1 pseudovirus T257-31 (HIV-1)
[12] = molecular target: Env of HIV-1 pseudovirus WEAU_d15_410_787 (HIV-1)

PG16 (antibody)
IC50 [1]: > 50 µg/mL
IC80 [1]: > 50 µg/mL
IC50 [2]: > 50 µg/mL
IC80 [2]: > 50 µg/mL
IC50 [3]: 1.83 µg/mL
IC80 [3]: 33 µg/mL
IC50 [4]: 3.63 µg/mL
IC80 [4]: 47.2 µg/mL
IC50 [5]: 0.065 µg/mL
IC80 [5]: 45.9 µg/mL
IC50 [6]: 0.005 µg/mL
IC80 [6]: 0.018 µg/mL
IC50 [7]: 0.032 µg/mL
IC80 [7]: > 0.25 µg/mL
IC50 [8]: > 50 µg/mL
IC80 [8]: > 50 µg/mL
IC50 [9]: 0.375 µg/mL
IC80 [9]: 3.92 µg/mL
IC50 [10]: 0.07 µg/mL
IC80 [10]: 1.62 µg/mL
IC50 [11]: 0.007 µg/mL
IC80 [11]: 0.021 µg/mL
IC50 [12]: 0.435 µg/mL
IC80 [12]: > 50 µg/mL
